According to patent publication US12065471B2, “B*44 restricted peptides for use in immunotherapy against cancers and related methods” (Immatics Biotechnologies GmbH, priority 2018, dated 2024):

Target: HLA-B*44:05 (Homo sapiens, UniProt P01889, A223V/A65T/A93T/A95T/D201E/D98Y/E176V/E187L/E204Q/E69K/G107R/H137Y/K202T/L105A/L119I/N104T/N87E/Q56L/Q94N/R106L/R155S/R180D/S101N/S121R/S35A/S48T/T118I/V36M/W191S/Y91S)
Assay: MHC binding assay (UV-ligand exchange, β2m ELISA, peptide exchange yield)
Conditions: binding to HLA-B*44:05
Description: Candidate peptides for T cell-based therapies according to the present invention were further tested for their MHC binding capacity (affinity). The individual peptide-MHC complexes were produced by UV-ligand exchange, where a UV-sensitive peptide is cleaved upon UV-irradiation and exchanged with the peptide of interest as analyzed. Only peptide candidates that can effectively bind and stabilize the peptide-receptive MHC molecules prevent dissociation of the MHC complexes. To determine the yield of the exchange reaction, an ELISA was performed based on the detection of the light chain (β2m) of stabilized MHC complexes. The assay was performed as generally described in Rodenko et al. (Rodenko et al., 2006)
96 well MAXISorp plates (NUNC) were coated over night with 2 μg/ml streptavidin in PBS at room temperature, washed 4× and blocked for 1 h at 37° C. in 2% BSA containing blocking buffer. Refolded HLA-A*02:01/MLA-001 monomers served as standards, covering the range of 15-500 ng/ml. Peptide-MHC monomers of the UV-exchange reaction were diluted 100-fold in blocking buffer. Samples were incubated for 1h at 37° C., washed four times, incubated with 2 μg/ml HRP conjugated anti-β2m for 1h at 37° C., washed again and detected with TMB solution that is stopped with […]. Absorption was measured at 450 nm.

| Peptide exchange (MHC class I binding score, peptide exchange yield) | Substance |
| --- | --- |
| +++ (>50 = +++) | 128 (TELTEARVQVW; listed as Homo sapiens) [compound 128] |
| ++ (>20% = ++) | 129 (EEAMKRLSY; listed as Homo sapiens) [compound 129] |
| +++ (>50 = +++) | 130 (REYQEVMNSKL; listed as Homo sapiens) [compound 130] |
| ++ (>20% = ++) | 131 (RESHLTEIRQY; listed as Homo sapiens) [compound 131] |
| ++++ (>75% = ++++) | 132 (AESFTSGRHYW; listed as Homo sapiens) [compound 132] |
| + (>10% = +) | 133 (IEAPKLMVV; listed as Homo sapiens) [compound 133] |
| +++ (>50 = +++) | 134 (IEIKDRLQL; listed as Homo sapiens) [compound 134] |
| ++++ (>75% = ++++) | 135 (QEIDRGQYI; listed as Homo sapiens) [compound 135] |
| +++ (>50 = +++) | 136 (EEMPEEIHL; listed as Homo sapiens) [compound 136] |
| ++ (>20% = ++) | 137 (EKGLISAF; listed as Homo sapiens) [compound 137] |
| ++++ (>75% = ++++) | 138 (KEAPNIVTL; listed as Homo sapiens) [compound 138] |
| +++ (>50 = +++) | 139 (AESDFSNNML; listed as Homo sapiens) [compound 139] |
| ++ (>20% = ++) | 140 (TEHSGIYSC; listed as Homo sapiens) [compound 140] |
| +++ (>50 = +++) | 141 (SEKWFRMGF; listed as Homo sapiens) [compound 141] |
| ++++ (>75% = ++++) | 142 (QELFLHPVL; listed as Homo sapiens) [compound 142] |
| +++ (>50 = +++) | 143 (HEIIIRSHW; listed as Homo sapiens) [compound 143] |
| +++ (>50 = +++) | 144 (IEAYLERIGY; listed as Homo sapiens) [compound 144] |
| ++ (>20% = ++) | 145 (EELRMLSF; listed as Homo sapiens) [compound 145] |
| +++ (>50 = +++) | 146 (MEELRMLSF; listed as Homo sapiens) [compound 146] |
| ++ (>20% = ++) | 147 (RMLSFQQMTW; listed as Homo sapiens) [compound 147] |
| +++ (>50 = +++) | 148 (KESDAGRYY; listed as Homo sapiens) [compound 148] |

| Peptide exchange (MHC class I binding score, peptide exchange yield) | Substance |
| --- | --- |
| ++ (>20% = ++) | 149 (AETEPERHLG; listed as Homo sapiens) [compound 149] |
| ++ (>20% = ++) | 150 (SEVFHVSEA; listed as Homo sapiens) [compound 150] |
| ++ (>20% = ++) | 151 (TELQIPSF; listed as Homo sapiens) [compound 151] |
| +++ (>50 = +++) | 152 (HENLIEDF; listed as Homo sapiens) [compound 152] |
| ++++ (>75% = ++++) | 153 (IEIILLSGSL; listed as Homo sapiens) [compound 153] |
| ++ (>20% = ++) | 154 (NEAGEMIKHY; listed as Homo sapiens) [compound 154] |
| ++++ (>75% = ++++) | 155 (TEDARHPESW; listed as Homo sapiens) [compound 155] |
| ++ (>20% = ++) | 157 (SQDVAGTTF; listed as Homo sapiens) [compound 157] |
| +++ (>50 = +++) | 158 (VEEERYTGQW; listed as Homo sapiens) [compound 158] |
| ++ (>20% = ++) | 159 (EEVQDGKVI; listed as Homo sapiens) [compound 159] |
| +++ (>50 = +++) | 160 (AEIATTGQLY; listed as Homo sapiens) [compound 160] |
| +++ (>50 = +++) | 161 (GESSEVKAVL; listed as Homo sapiens) [compound 161] |
| +++ (>50 = +++) | 162 (EAYDIELNKW; listed as Homo sapiens) [compound 162] |
| ++ (>20% = ++) | 163 (AEDEDGKIVGY; listed as Homo sapiens) [compound 163] |
| ++ (>20% = ++) | 164 (DEDGKIVGY; listed as Homo sapiens) [compound 164] |
| +++ (>50 = +++) | 165 (EEIEAHIAL; listed as Homo sapiens) [compound 165] |
| ++++ (>75% = ++++) | 166 (EEQDFINNRY; listed as Homo sapiens) [compound 166] |
| +++ (>50 = +++) | 167 (AETENRYCV; listed as Homo sapiens) [compound 167] |
| ++ (>20% = ++) | 168 (EEGPSVPKIY; listed as Homo sapiens) [compound 168] |
| ++++ (>75% = ++++) | 169 (KEHNSSVPWSS; listed as Homo sapiens) [compound 169] |
| ++++ (>75% = ++++) | 170 (REMFVFKDQW; listed as Homo sapiens) [compound 170] |

| Peptide exchange (MHC class I binding score, peptide exchange yield) | Substance |
| --- | --- |
| ++ (>20% = ++) | 171 (WEVVHTVF; listed as Homo sapiens) [compound 171] |
| +++ (>50 = +++) | 172 (RENPGMFSW; listed as Homo sapiens) [compound 172] |
| +++ (>50 = +++) | 173 (SEHSLEGQKF; listed as Homo sapiens) [compound 173] |
| +++ (>50 = +++) | 174 (DENDAGNLITF; listed as Homo sapiens) [compound 174] |
| +++ (>50 = +++) | 176 (GETQQHIQL; listed as Homo sapiens) [compound 176] |
| + (>10% = +) | 177 (LEEPMPFFY; listed as Homo sapiens) [compound 177] |
| +++ (>50 = +++) | 178 (MEGAALLKIF; listed as Homo sapiens) [compound 178] |
| ++ (>20% = ++) | 179 (EEHIFSAF; listed as Homo sapiens) [compound 179] |
| ++++ (>75% = ++++) | 180 (EEHSSKLQTSL; listed as Homo sapiens) [compound 180] |
| ++ (>20% = ++) | 181 (HEVAQDDHL; listed as Homo sapiens) [compound 181] |
| ++++ (>75% = ++++) | 182 (EELHAALSEW; listed as Homo sapiens) [compound 182] |
| ++++ (>75% = ++++) | 183 (KEMQVTISQQL; listed as Homo sapiens) [compound 183] |
| ++++ (>75% = ++++) | 184 (EEQLLQKVM; listed as Homo sapiens) [compound 184] |
| ++++ (>75% = ++++) | 185 (TEANVQALF; listed as Homo sapiens) [compound 185] |
| +++ (>50 = +++) | 186 (EEIFAHLGL; listed as Homo sapiens) [compound 186] |
| ++++ (>75% = ++++) | 187 (TEQALRLSV; listed as Homo sapiens) [compound 187] |
| +++ (>50 = +++) | 188 (AEFVPKADLL; listed as Homo sapiens) [compound 188] |
| ++++ (>75% = ++++) | 189 (ALNGDIYVW; listed as Homo sapiens) [compound 189] |
| +++ (>50 = +++) | 190 (NEAGEVSKHF; listed as Homo sapiens) [compound 190] |
| +++ (>50 = +++) | 191 (AEHDMKSVL; listed as Homo sapiens) [compound 191] |
